Experimental data taken from the domain aggregation screens of Martell et al. (2025).

Assay: soluble fraction after stress (log2 fold change); higher = more stays soluble; pooled small domains, quantitative proteomics
Details: stress: 50 degC
How it was run: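 Custom libraries of small protein domains were pooled and measured in a high-throughput format, with quantitative proteomics as the read-out. Each library was stressed at 50°C. The value is the log2 fold change in the amount of each protein that stays soluble after stress, used as a measure of aggregation propensity; higher values mean more of the protein stays soluble.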

Sequence	soluble fraction (log2)
HMNKTVKIPNVSNLSREDAESVLKENGISVNSEVKQIESDTIEKGKVVKTDPSIGTSVKKGRSITIYVSSG	0.0637
HMGEVYPSDIVEKMKQANLHILEGTLYPLLTRLKNAGLLNYRWVESVTGPPRKYFVMTEEGKAAF	0.0419
HMAIDWVQIKAEYISGTMSASKLAEKHGVSVYAIRKRSGKERWQELRRQNQSETANKIAEKI	-1.6
HMPQQVFKREDLQKWGLTGQADSRKRREKLGQLLGIGYGNGKQLIHRLNMFQVDRATFEQAIKQINQEEDH	-0.423
HMALDLPVKRVKGKEYYYYKVKKGESLYGISKHLGLPLDSIVKSNPSVADGVRKGDMLLFPLEEYT	-0.307
HMANSDEEVLNKISTKAPTFNELINKIKEFDDTKEINDIWLDVYRYYITDEEYKEIAKKVITGLTYTNQ	-0.177
HMKSPVKLILRGSIYHIKISAVVNGQRIFVRESSHTTDKREAEQYANKRFAQLVEETEFRTN	-1.11
HMKHFFIIAGGKIEDAFAIEVLKGFAEKTVIAADSGMEFLRRNEIVPQVIIGDFDSVSKETLEWFQKK	-0.703
HMKDASEFLGAKGKTITPLRPTGAAVINGEKVDVLAEGEFIPKNAEIVVIKVEGSKIIVRNANN	0.143
HMAIGSRLKVTTDATNLNIRSTPSTEGDIVGKAAHHEIVTLVEKTDDSWWKIKTNDGEEGYAYAQYLSPV	0.12
HMEQVLNVAVRRGELIMSSAAEQTVRIYSSAGSMVWQGKVSASDVTVELPSGVYVVNGKKVV	-1.19
HMNLSAREWTSADGSRTFQGELTGFQDGKVKVRRSDGKSLVFAIELLSESDQQFIKTNQLVIAKKDED	0.161
HMSFDGFSDRLKSVLNSGKYTQKEAAEKINISEYSFTKYLNGRIPQTEILYKIARLYNKSMEWLLTGKDPI	-2.01
HMTDRKRDAIVQAAIGEFREHGFNGTSMDRVAAAADVSKRTVYNHFPSKEELFEAILLLMWE	-2.09
HMNDPIESLTPREREVLTLMAEGRTNAAIAAQLVVTEGAVEKHTQHIFAKLGLLPDSAVHRRVKAVLALLS	-1.75
HMGNLPPAVINARIKVSPAGRGVFVGFDKGSTSTEAKYADAIRGYLPNIEFNKDDHESVVTVPFNFR	-0.032
HMQGEAMQETVKKLDAFLQDNSVSMSALARALGVSPSLISQFRSGSYKGDSQAIAAKINSYIDNHNKKSK	0.0765
HMKEYPEVITTSRLNVRTGPGTGYQRLGTLDQNLRVLVLTRQQGWAQIRGMLNGETVIGWVNDYYLQAID	-0.319
HMASGLITEEQAKSKALAHAGLSASQVNFIWVKQDWEDGRRVYEVEFYTDDYQEYDYEIDARTGEILSFDY	-1.97
HMTRNEFLTALRGRLSALPKEEQDAALKYYEEYFDEAESEEDAARQLGSPDSIAEKILADYA	-0.17
HMSDFKDIILKLRNEQGFTQEKLADVLGTSKSTVGMWEMGVRFPSKELYEAIADYFNVDIDYLYGRTDIR	-0.966
HMAYSEEDRRRVREELLTTALKLMSTQGIQHTTVEQVYRSVGISRSFFYAFFPTKEDLIVEAL	0.117
HMPEPMKLSDLPPELWQRVSDLFDEVIDLPETDRIPYIRNLWGSEPLVAKELMALLVAAANVD	-0.274
HMSTADGGYPSIVINDGRVIDTNLQKLGLDRSWLSAELKRQGKGSEKDIFLMTVNQRREVYISVKEA	-0.27
HMEQYFEDEELNDKFLEFLAMRKRVRKPVQTDRGMKMLLTSLHKLSGGDVGLMKQIIDQSLDNEWKKFVA	-0.673

Sequence	soluble fraction (log2)
HMEAVGLTPRQGDVLALLLQGKPNKLIARDLNLSVETVKDHVAAVLRALGVSTRTQAVLAVSQMQQQAAQ	-0.248
HMSDILALMPGTIKQILVAPGDSVKRGQTVIIMESMKMELTIAAHRDGVVKRIPVEQGGQVEKGMRLLELE	0.256
HMTVLSKEEFVAIEQRLLQLLGTAPVDNKILLQQLSGIKKEKAWKVLSFLQAENKIGMDATGRVYL	-0.439
HMSNATELVYDDGRKLLISYETLVGGYHPDLGWIRTAKTYSISTDKHIRNYFNNVTNPRVVGEDILETLKI	0.0667
HMYLPLREVVFNALRTAIIHGEFKPGERLMEMHLAKSLGVSRTPVREAMRMLELEGLVVMIPKKGAEVAR	-3.13
HMDLDPNKPAIPIAYPRVLLNIMAEKGFSRTEVLAGSGLADSVFDKPDHRITPAQFLFILMNSFYLS	-0.601
HMNDVGKVLNQLGERDRMILLLTYWDELPLKEAARILEVSENNAKIILFRARSRFASLWSAGS	-3.13
HMVNEALDEFFVGLKNLYESATGKPAIAGAHFDGEPKTDFEKLMYLGYQIIRPAQAYPSALKAYERAIARS	-0.173
HMSEPQYKVLFSNLDDRDGGAIVTALGAMNVPYKYNDTGTALLVPADRVYDARLQLASQGLPRG	0.18
HMTEKSTRSVPQEHEGKRLDVAAALLFPVYSRSELARRIDAGYLLLNGKGSTPKTKVHELDLIELLEV	-0.341
HMDVNMLVTGMLHKGEKSFVRVSFLRGKDWAEGIVPDAKIEKSQGFMEEEVARLEAYLLEQKSMIMEQA	-1.32
HMSDSGLPLPRFVSLGDDRVNARAGPGFRFPINWVYLRKNFPVEVIDEFGHWRRIKDIDGIEGWIHLSML	-0.775
HMTMQQGTISRLNHSRGFGFLTTPDGEDLFFHRTNVHETPFARLQVGDRVTYDVQVTPRGTRADKVQLNM	-0.0328
HMQLNNTDELEKIILKILENNPKQVDQFLAGKQKLLGFFVGQAMRATSGKANPKTVNDLLEKFLSK	-0.0714
HMNPNPYIVLGVDKSMPFGEIKKVYQRKRREFHPDSLVAKGLPDELLQKAQDKFIAIQEAYKSIEKNQV	0.317
HMVDIEQAEFLSRQFDLLLARLDDPTIEWQDIADIRSEYTGENEHRDTIRKGSKLFYEYLQAGWIKN	-0.748
HMPMIQHFHRMISAALGISEKQIVQTLGLLNDGATIPFISRYRKEVTGGLDEVQIESIKTHYEKLNEIAK	-1.52
HMSGEMGIIVAKRLPIRSEPDELATRAFVLKAGTRVKIVKHLNGWLEIVHDGKAGYVQDLEVYVRVIG	-0.524
HMEETLRALAKKISEKVLKSGRSTTLEPMNPYERRIIHSAVSEIEGVSSKSVGEEPYRKVVISSDNP	0.0364
HMDDGNHTEYIVLEKAKFYDEAGEYEEGRDLVLSFDKYQDNWKLVYTLGVFNKKLNNLEEARKYYKQALE	-0.0519
HMKRSFGYIRLLPSKRYQASYIGPDSQRHAAPETFTRKMDAEGWLSAERRLIEWDQWTSPEQRAAQARLD	-0.591
HMKDITMPNVYGLTLEMAEQTLKQSELSIFKAMKINSDTVEEGKVIYTDPKANSIVSGDQEITIYVSDGP	0.0645
HMNIQPAMLNAANGGVAWKERGISMSQIMKRNAHTAEGSQKLWDYAFENFFQKNIDAGNIRDDR	0.0644
HMSAEGPALADWVVRDAHSIGAKITNSVAQLLIDRVGHNQQLLHNELQKLALVQTDISAELVKTMSHY	0.0302
HMQRDELRYDQFLTALQNKEFTQLNVRFDDYTYLVTGTFQSGRPFSTRGPVSEEFIRLIESSGVQVTWLPM	-0.577

Sequence	soluble fraction (log2)
HMSAAPVGPWALSEFLDAVEKDSVERVTFDDAGKALVAVDADGGRHRVEILPSEGPEILAALRKHSVQFA	0.0953
HMEKSQIHLIHTRYVNPEQLVPILSMVIPAENIYVKSDSNLIIINGSSEMLREVESIVSKLDVPS	0.0228
HMYLEARVKSTTPILSKPNELGKSLGKLYTNDFVALVSLHKNGLDSYYRTANGGYINAADVVIDRDV	-0.663
HMKTYGGDNSLHKFDEHHSWMVAKYGPVVKQTINGETKWLKVKKDLTLAQVKKMKLEDVLLPKSQT	-0.152
HMKEIYIDRGKEALEKELRKRKIPFQEFLSKENTNLLFDTLKIPSHDLEELYLEIGNGKHAASTVVNTVY	0.136
HMEVSYSLPRFHKGKNPYVDFYQVDPRTLRMRRKKFLLRGVRDAVLLEQRAADLVALLTERLHSGWNAWDD	-2.11
HMSSSYVYGGNGEIVILSDVSKHLNVYNLNGQKVTDVNLTAGELQRISIATGIYVVGGKKIVV	-2.92
HMRKMELTEAAEKLIEEPDVVSAYRNMQQIFQQWREIGPVPREQRDEVWSHFKDLMTQVNRRHQAHFEN	-0.0451
HMFPTLNEDEQTIVSALQKINDQPINTLSIHTALPIPRLTSLLFQLEIKGVIKQLAGGTYHVL	-0.427
HMGAATQADIARVQELLNRLGYDAGSPDGLMGPRTRDAILEYQLTEGLETTGTVTRETLASLEARL	0.0823
HMKRTRLEEAMDWLREQLNDGPVAYATLKDEAPKAEITLSTLRAAGEALRVDKQKKGVQWGGWTWSLPR	0.0438
HMDDHKQHLIDFYHSRKRMPTYTEMMALFGYKSKNAVARLVEKMIDAGIVTKDKLGKLLPTTLFDSVPL	0.0577
HMSDAGMNQIGDMFRAPDLMAKLAMNPATREYVSQPDFLAMMEEVKRNPSALNNHLRDPRMMNVLSVAM	-0.115
HMSNYLKSVEVFDPITNKWSYVSAMKVRRGYVAVVATMDRLYAIGGYDGENYLSTVEMYNPDTN	0.0631
HMSEVTYQETLRLLRRAIDVLPQQSRQIILLGLSGKNNNEVAEMLGISVNTVKTLKKGAYKSLRNSL	-1.66
HMVGMDRYFKIKNIKDSSAAFERDYILHFLKENDWMVSKTAQMIGLERTTLYKKIKQLGLASMLEN	-2.85
HMPLPLYVQIKESLRGQIFDGTYGEHERLPSENDLMSSFGVSRITVRQALSDLEKEELIFKVPGKGAFVSR	-1.32
HMEDKPITKEQKQAMFALLREHFSGDEGNAVYTAVLEREGLAPGDKIMSSVYDRLIDGINEAIRQKLEAGA	0.00629
HMQILLASHAELAKGILSAVELIAGTQQNLKAYSAYTEAVDVHFKDQMLQDLNKMDPEDEVIL	0.0294
HMTSSVIIPKLIGKTEEEAKVALAGLNVQVLYETHGDQANGIVIKQSFEEGTKVIKGVSIVITVNKVS	0.0698
HMKNAYDLKMLVKDNDGNIERNMKYYFFLANGSKVEGITDDNGYTKTITTIQPEKADLHLINDELI	-1.1
HMRRSVYQANVLDAIKHLVDQNELATTKAIAEYIGDDYQGNVSRAIRELLADRKIKKLPKVGVLQPYEA	-0.285
HMELADLPSAQIREILAYVYRAPLEKRRDPSIHWLLIAAHKLTLPLLDRLDPADARALGERYGADYP	0.132
HMLETLVYPNPTTDKILLSSPVDYHLFSLKGELVLEGRGSSIEVSQLSKGVYFLNTKTQTFKIIK	-0.383
HMSGLVPAIGTKGEEGYIRESDIPGSNVKNPEEALAYMEWLKTQPSELLIPLYDEQGNVIGQFAVS	0.07
